Measurements taken from the DeepSol protein solubility set.

assay: soluble on expression in E. coli; label from the status in PepcDB or PDB records

Sequence	soluble on expression in E. coli
MGSDKIHHHHHHMRWIAPTEKDVAAATLEKRLWAAADELRANSGLKSAEYSQPILGLIFLKFADARFAVRRAELAKVTTGRRGSRVDDPASYHAEGVLFLASEARFSELLEFPEGGRDGKTLGQAVDDAMRAVERDNEQLAGVLPKTYQQFKARPLKELLKAFSAIPVDLEGDSFGKIYEYFLGEFAMAEGQGGGEFYTPQPIVRLMVEILEPFKGRVLDPACGSGGMFVQSARFVSEHKKNGGLAIHGVEKVDTTGQLCRMNLAVHGLEGDIRHGGEINSYYDDPHNAVGRFDFVLANPPFNVDKVDKDRIRDAVGPGRRFPFGVPNVDNANYLWIQLFYSALNESGRAGFVMASSAPDARASEQELRRKLIESRAVDVIISVGSKMFYTVALPCTLWFLDRGKPKDRRDKVLFIDAQHIYRQVDRAHRDWTEAQIGFLANVARLFRREEVDLTFGGAEAKYRLREVFGNKPTYADVAGFCKAATISEIEKQAWSLNPGRYVGAAQGEEVSDEDFRTQFEGLAEEFETLTAEAREFEKVITKTAAEILG	not soluble
MKLCFNEATTLENSNLKLDLELCEKHGYDYIEIRTMDKLPEYLKDHSLDDLAEYFQTHHIKPLALNALVFFNNRDEKGHNEIITEFKGMMETCKTLGVKYVVAVPLVTEQKIVKEEIKKSSVDVLTELSDIAEPYGVKIALEFVGHPQCTVNTFEQAYEIVNTVNRDNVGLVLDSFHFHAMGSNIESLKQADGKKIFIYHIDDTEDFPIGFLTDEDRVWPGQGAIDLDAHLSALKEIGFSDVVSVELFRPEYYKLTAEEAIQTAKKTTVDVVSKYFSMLEHHHHHH	soluble
GPYGAPAGPLIVPYNLPLPGGVVPRMLITILGTVKPNANRIALDFQRGNDVAFHFNPRFNENNRRVIVCNTKLDNNWGREERQSVFPFESGKPFKIQVLVEPDHFKVAVNDAHLLQYNHRVKKLNEISKLGISGDIDLTSASYTMI	soluble
VQVGNCLQVMWLADRHSDPELYTAAKHCAKTHLAQLQNTEEFLHLPHRLLTDIISDGVPCSQNPTEAIEAWINFNKEEREAFAESLRTSLKEIGENVH	soluble
MFTHVESFKSAFLEKLETMYGKSFKDSTTRDQYNTLGYMVREYMNSQWIATNESYRSGERKQMYYLSIEFLLGRLLGSNILNLGIRDVCEQGLSELGISLQQLEEVEADAGLGNGGLGRLAACFLDSLASLDLPGHGCGIRYKHGLFDQKIVDGYQVEFPEQWLLHENVWEVRRHDQAVEVSYFGNVEPLYIDGRLEFRHTNAEVIMAVPYDVPVVGYETSTVNTLRLWNAEPVPFPQNCKDILKYKRETEAVSEFLYPDDTHDEGKILRLKQQYFLVSASLQNIVRLHRERYGDLRQLHEKIAIHINDTHPVLAIPELMRILLDEEKLAWEEAWHITTQTISYTNHTTLSEALEKWPIHIFKPLLPRIYMIIEEINERFCHELWERYPYEWHRIEEMAIIAHDLVKMAHLAIVGSHSVNGVAKIHTEILKQREMRLFYEFYPDKFNNKTNGIAHRRWLMKANPQLTNLISEAIGTEWKKEPIKLQELQLVQYDASFQEKFAEVKQERKEILAERIHNTMGITIDPNSIFDVQVKRLHAYKRQLLNVLHILYLYNRLKEDASFTFYPRTFIFGAKASPGYYYAKKIIKLINELARKVNNDPYVSQYMKVIFLENYRVSLAEDIFPAADVSEQISTASKEASGTGNMKFMMNGAITLGTLDGANIEIKDRVGDDNCFIFGLTAEEVLHYYQNGGYRASDYYHHNGHIKKVVDQLTNGFFAQSGAEFEAIYDSLVIQNDEYFVLRDFGPYAERQEAVGRAYENRTKWLEMSILNIAQSGHFASDRTILQYSNEIWGIGNTVTQI	not soluble
MPKELWPLTGSRLEGSSMADRRRQRRTSKAGVGGRRVEYKRVPLGFIKAIVKTGHVVVEPSEKVRRNPPRGRFQVLLAGDGEVGYVSDVIGPINSPFIVVRVRERGVIEKLSPGAELIMLVPPKKPPRKGAPRRGSSRGRRGFKKGKARG	soluble
MSLGNAMNITSCISQSECSCQLSESTSDTNSNSSFKTRSLGYDRSSQSLSISDVELGFKSVTETSSNNYRLRRIIESNDFFKDVMYKFFLLRENSLVLDQSKSYYSDKDPHYSIICSDYYVFALRRILIEGHHHHHH	not soluble
MSSINITNVTVLDNPAPFVNPFQFEISYECLTSLKDDLEWKLIYVGSAEDETYDQVLESVLVGPVNVGNYRFVLQADSPDPLKIREEDIIGVTVLLLTCSYMDQEFIRVGYYVNNDYDDEQLREEPPTKVLIDKVQRNILTDKPRVTKFPINFHPENEQTLGDGPAPTEPFADSVVNGEAPVFLEQPQKLQEIEQFDDSDVNGEAIALLDQPQNLQET	soluble
MRDSPTHKEQRAQNTMSDQMPFPFNNFTYFFTLFSKFFSSFHHCTCSLSVSRQYLALDGIYHPLRAAFPNNSTLRRHFTKNRTPRHTGFSPSMTSCSKEHRQGTAPKLPSPNYNSGTEGTRFQI	not soluble
MSLKPLIKIETERTSLIYQVADNGRLYQKYLGKKLNHDSDIQYLPQGTEAYLTHGMEDYFEPAIHIRHNDNNSSLLLKYVDHSSNAIGNGVNETVITLKDDKYPVTVKLHYVAYGKENIIRTFTEISHEEKKPVILCKYASSMLHLNSSKYFLTEFSGDWAHEANVTERELAFGKKVIDTKLGARANMFVSPFFQLALDNPSQENAGEVLVGTIGWTGNFRFTFEVDNKNELRIISGINPYDSEYSLPAREVFRTPDFYFTYSTQGKGEASRNFHDWARNHQVKNGNDTRMTLLNNWESTYFDFDENKLIGLMDEATKLGVDMFLLDDGWFANKYPRSSDHQGLGDWEETADKLPNGVGRLVEEAQKKGIKFGIWIEPEMVNPKSELYEKHKDWVIHLPNRDEYYFRNQMVLDLSNPKVQDHVFGVVDNLMTKYPGIAFFKWDCNSPITNIYSVYLKDKQSHLYVDYVRGLYKVLDRIKAKYPNLPMMLCAGGGGRSDYEALKYFTEFWPSDNTDPIERLFIQWGYSQIFPSKTLCAHVTTWNRGTSIKFRTDVAMMCKLGFDIKLEDMNQNEHLYCDQAVKNYNRLKPVILEGDLYRLVSPYGSNHTSSMFVGKDKKTAAVFAFDIHPRYAEKTLPVRLQGLNADKKYRVKEINMMPGSGSSLKGNNQVFSGEYLMNVGLDLFTTQQLNSRLIEITEEGHHHHHH	soluble
MGSDKIHHHHHHMKVGIDAGGTLIKIVQEQDNQRTFKTELTKNIDQVVEWLNQQQIEKLCLTGGNAGVIAENINIPAQIFVEFDAASQGLGILLKEQGHDLADYIFANVGTGTSLHYFDGQSQRRVGGIGTGGGMIQGLGYLLSQITDYKQLTDMAQHGDRNTIDLKVRHIYKDTEPPIPGDLTAANFGHVLHHLDADFTPSNKLAAVIGVVGEVVTTMAITVAREFKTENIVYIGSSFHNNALLRKVVEDYTVLRGCKPYYVENGAFSGAIGALYLEK	not soluble
MAGDPMNSLIDRRLNGRNKSAVNRERFLRRYKDQIRKAVQDLIRERSISDMDQGGEINLPARDISEPSFRHGEGGDREIVHPGNREFAKGDTFDRPQGGDGGSGSQPGEGESVDQFTFSLSRAEFLNLFFEDLELPHLARTQLGDVKQQRWHRAGYTTTGSPSMLSVNRTLKASLSRRVALGVGARAALDAAEQELEAARDAGAPQAELDRLLAEVEKCAARVARVPFLDDLDLRYRNRVAVAVPMARAVMFCLMDVSGSMDEMKKDLAKRFFTLLYMFLSRKYEHVDVIFIRHTDNAEEVDEQTFFYDPKSGGTIVLSALELMHEIVQKRYSPATWNIYAAQASDGDSFGADAGKSARFLAENLLPATRYFAYIEVPDSQEARKSSLWAEYEQESASHFVMRRICERGEIFPVFHDLFKKETVLEHHHHHH	soluble
MRIAVASGKGGTGKTTVAVNLAVFNHIDLFDLDVEEPNDRIFIKGEAEEWPAYRKVPEVRENCNACGVCKDVCQYSAIYVIDKAYPLPELCHSCGACIYLCPEKAMEEVDYQTGKIVRVKSDITLTYGEMRIGEASAVFLIKQVKELMGKNAIIDSPPGASCPMVESVSDADYVILVAEPTPFGLHDLKIAAEVVSDLGLKFGVVVNKHGLPFDGIERYCKEGGVEILGKIPFSKEIAEKYSRGELLHDMKDFFVQLYEGIALEHHHHHH	soluble
FNFGASYKNFSFSAQFGASWGTYALVQTDLRQEKYDDLEYKNVSAMWKDMYVYEDVLDAGGNVVAPMNRSAKYPNLRYSAINGQASTFWKVSAASVRLRNLTVAYSLPKEWTNRIGISSCRLNLTAQNLLNFYNPYPDGVWSTWGGTYGRYPNLRKVTLGVNVSF	not soluble
SLSSTVSYWILNSTRNSIATLQGGRRLYSRYVSNRNKLKWRLFSRVPPTLNSSPCGGFTLCKAYRHTSTEEDDFHLQLSPEQINEVLRAGETTHKILDLESRVPNSVLRFESNQLAANSPVEDRRGVASCLQTNGLMFGIFDGHGGHACAQAVSERLFYYVAVSLMSHQTLEHMEGAMESMKPLLPILHWLKHPGDSIYKDVTSVHLDHLRVYWQELLDLHMEMGLSIEEALMYSFQRLDSDISLEIQAPLEDEVTRNLSLQVAFSGATACMAHVDGIHLHVANAGDCRAILGVQEDNGMWSCLPLTRDHNAWNQAELSRLKREHPESEDRTIIMEDRLLGVLIPCRAFGDVQLKWSKELQRSILERGFNTEALNIYQFTPPHYYTPPYLTAEPEVTYHRLRPQDKFLVLASDGLWDMLSNEDVVRLVVGHLAEADWHKTDLAQRPANLGLMQSLLLQRKASGLHEADQNAATRLIRHAIGNNEYGEMEAERLAAMLTLPEDLARMYRDDITVTVVYFNSESIGAYYKGG	not soluble
MFNKASFLTRLVASSVRVSEAAGGLIKNVMAGGDLKIIDKSEHGSGYDPQTEADRRAQYCIVQSLQKHFKNINIIGEEEDTTACPEIEMGFSADVLQMERLMSTELKNIQENDVVVWVDPLDGTSEVALAVKNKNMALLEQVTVLIGIAYKGRPVAGIIHQPYHEKLGRTVWAIQGCGVHGVVPATGNAQKIVVTTRSHLSESVSNALEALKTRNLADSVEKVGGAGFKVLKVLEGCAAYVFASAGCKKWDTCAVEAVLTAAGGTLTDISGRDIRYEPGVQLNNTGGVLATASWVKHKDYIDTIPQEIKNMLPEISSKK	not soluble
MAHHHHHHMAVSSARESVTDLLSGREDVRTVSSSTMAQESTTIKTGELGEDGGGDGVISDRSNVLARVFEELLDAEVSMNPAKLREASRAGIPSLYRSTVYRYLLGITFVDHSREMSLERMQEKDFEQLLTAFGRIVASDGTGQRPSVKGRIMQPLASPRLHDSETIPLITRDESQFANGYRCSDRSFSVGYAAWIKFRANLRYLPRFVGNPERRQRMECAWQALHVTSSGATPDEVENLFELALVFESVHGTARDIYFSTSSLYYLLTHHGNVLQNAQCLQRMCGTFLMLFRATNFDLYRHFVAESVTAVEWLPGMLKTLLAGRLHEEDLLRLWDVYLADALEYLGFPLHPYVCLAILEEMTEVLLECEKSGIIERLRHLPRIEAGSIIQKAISLKESVFSKDLL	not soluble
RYDKPGDKIDDGTELKLKGEKLKYVSRGGLKLEKGLHVFGVSVANQIGIDIGASTGGFTDVMLQDGAKLVYAVDVGTNQLVWKLRQDPRVRSMEQYNFRYAQPEDFNEGQPVFASIDVSFISLSLILPALHNVLSDQGQVIALIKPQFEAGREQIGKKGIVKDKQIHEKVIQKVMDFASGYGFTVKGLDFSPIQGGHGN	not soluble
MGSDKIHHHHHHMKITFPNLGNTLYAAKALFDNLEIEYVLPPNSSKKCLEIGSLYSPEDICLPFKIMIGAYIDSIERGADTILITGSCGPCRFGEYCELQINLLKKLGHDVDFIVLDRPSSIGKTEFLNRLSKISGSSSISSYKKLKAVYSAYKIINLIDYIEKTARYKAGFELKKGECKKILQTCKKSALTCNNAESMIDLLTKYKHMINHVPIDSTKTPLKVSIIGEIYTILEPFSNLYIENKLMDLGISTQKNITPSWWFKDAMLSNLNLNSINLRMNSKKYLPYYIGGHGRECVGEAVMASNSGFDGAIQLFPMGCMPEIVSKSILPTISRDKDFPILSLIIDEMTGDAGYMTRIEAFIDLLERRKNRCII	not soluble
